Laboratory results as given in the supplement of paper PMC10126150.
± gives the standard deviation of the averaged measurements.

Tested on: ATP
Experiment: switch fluorescence ratio, 500 uM ATP over buffer (Cy3 cluster intensity, sum of 5 cycles each) (fold (ratio)); higher = stronger signal-on switching upon ATP binding; sequences stand for … in TCGTCGGCAGCGTCAGATGTGTATAAGAGACAGTTTTTTTTTTTTTTTTTTTTTTTTT…TC
Settings: aptamer strand: ATP DNA aptamer (quencher-CACCTGGGGGAGTATTGCGGAGGAAGG + anchor), 100 nM annealed; ATP concentration: 500 uM
Outline: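 Imaging in selection buffer was followed by imaging after 15 min with 500 uM ATP at 22 °C, for Cy3-labelled switching-strand clusters annealed to 100 nM quencher-labelled ATP aptamer on a modified Illumina MiSeq flow-cell. Five of these buffer/ATP cycles ran, separated by NaOH stripping and re-annealing. The fluorescence ratio per cluster is summed target-cycle over summed buffer-cycle Cy3 intensity, averaged per switch-domain sequence; clusters outside 100-1000 RFU were removed.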
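Note: ATP exposure 15 min at 22 °C before imaging.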

**Q.** For TCGACGGAGT, which switch fluorescence ratio is on record?
**A.** The switch fluorescence ratio was 1.114 ± 0.00049.

**Q.** With CGTCGAGTGC as the sequence, how does the switch fluorescence ratio read?
**A.** Its switch fluorescence ratio is 0.962 ± 0.011.

**Q.** Which switch fluorescence ratio does the source give for GGTTTTGTTG here?
**A.** Its switch fluorescence ratio is 1.01 ± 0.0013.

**Q.** Which switch fluorescence ratio does the source give for TCGTGAAGAG here?
**A.** The switch fluorescence ratio was 0.987 ± 0.012.

**Q.** How did the switch fluorescence ratio turn out when GTTCGTCTTT was run?
**A.** Its switch fluorescence ratio is 1 ± 0.013.

**Q.** How did the switch fluorescence ratio turn out when TTTTACGTGA was run?
**A.** The switch fluorescence ratio was 1.057 ± 0.0092.

**Q.** GCAAGGGGTT was tested. Which switch fluorescence ratio did it give?
**A.** Its switch fluorescence ratio is 1 ± 0.063.

**Q.** Which switch fluorescence ratio does the source give for GGGGTACGTT here?
**A.** The switch fluorescence ratio was 1 ± 0.032.

**Q.** For TTGCTGATTT, which switch fluorescence ratio is on record?
**A.** Its switch fluorescence ratio is 0.992 ± 0.059.

**Q.** With AAGCCCAGGG as the sequence, how does the switch fluorescence ratio read?
**A.** Its switch fluorescence ratio is 1.403 ± 0.0054.

**Q.** With GGTCCGTCGA as the sequence, how does the switch fluorescence ratio read?
**A.** The switch fluorescence ratio was 1.02 ± 0.064.

**Q.** Which switch fluorescence ratio does the source give for TTTTGGGTG here?
**A.** Its switch fluorescence ratio is 1.04 ± 0.04.

**Q.** TGCAATCGGT was tested. Which switch fluorescence ratio did it give?
**A.** The switch fluorescence ratio was 1.22 ± 0.065.

**Q.** How did the switch fluorescence ratio turn out when ACGTTGTACA was run?
**A.** Its switch fluorescence ratio is 1.06 ± 0.038.

**Q.** Which switch fluorescence ratio does the source give for CATATTGAAT here?
**A.** The switch fluorescence ratio was 1.01 ± 0.02.

**Q.** With GCTGGGAGGG as the sequence, how does the switch fluorescence ratio read?
**A.** The switch fluorescence ratio was 0.979 ± 0.022.

**Q.** Which switch fluorescence ratio does the source give for TGATGGTGGG here?
**A.** The switch fluorescence ratio was 0.979 ± 0.029.

**Q.** CTGGTAAGGT was tested. Which switch fluorescence ratio did it give?
**A.** The switch fluorescence ratio was 0.9947 ± 0.0074.

**Q.** TTTAGGGTGT was tested. Which switch fluorescence ratio did it give?
**A.** The switch fluorescence ratio was 1.05 ± 0.071.

**Q.** How did the switch fluorescence ratio turn out when AGGCGGCCGT was run?
**A.** Its switch fluorescence ratio is 0.9889 ± 0.0082.

**Q.** How did the switch fluorescence ratio turn out when TTTGGAGAAT was run?
**A.** The switch fluorescence ratio was 1.02 ± 0.025.

**Q.** TTTGATACTC was tested. Which switch fluorescence ratio did it give?
**A.** The switch fluorescence ratio was 1.15 ± 0.091.

**Q.** For GCGGGGTATC, which switch fluorescence ratio is on record?
**A.** The switch fluorescence ratio was 1.09 ± 0.18.

**Q.** With CCGGGGTCTG as the sequence, how does the switch fluorescence ratio read?
**A.** Its switch fluorescence ratio is 0.995 ± 0.035.

**Q.** With CAACTTAGTC as the sequence, how does the switch fluorescence ratio read?
**A.** Its switch fluorescence ratio is 0.988 ± 0.068.

**Q.** For AGGGATAAAG, which switch fluorescence ratio is on record?
**A.** The switch fluorescence ratio was 1.01 ± 0.023.

**Q.** Which switch fluorescence ratio does the source give for GCCACACAAT here?
**A.** Its switch fluorescence ratio is 1.022 ± 0.0014.

**Q.** How did the switch fluorescence ratio turn out when ATGCTTGCTG was run?
**A.** Its switch fluorescence ratio is 0.9819 ± 0.0052.

**Q.** For TTCGCTACGG, which switch fluorescence ratio is on record?
**A.** Its switch fluorescence ratio is 1.05 ± 0.029.

**Q.** For GGTGTCTGCG, which switch fluorescence ratio is on record?
**A.** Its switch fluorescence ratio is 1.01 ± 0.013.

**Q.** Which switch fluorescence ratio does the source give for TCGAGAGGTG here?
**A.** Its switch fluorescence ratio is 1.1 ± 0.1.

**Q.** For GATTTTTAGC, which switch fluorescence ratio is on record?
**A.** Its switch fluorescence ratio is 1 ± 0.065.

**Q.** Which switch fluorescence ratio does the source give for GATGGGGCTC here?
**A.** The switch fluorescence ratio was 0.979 ± 0.024.

**Q.** AACTTTAGTC was tested. Which switch fluorescence ratio did it give?
**A.** Its switch fluorescence ratio is 0.994 ± 0.04.

**Q.** How did the switch fluorescence ratio turn out when CAAGTTATGT was run?
**A.** The switch fluorescence ratio was 1 ± 0.044.

**Q.** GGGGGAATGG was tested. Which switch fluorescence ratio did it give?
**A.** Its switch fluorescence ratio is 1.11 ± 0.17.

**Q.** With TAATTATCTT as the sequence, how does the switch fluorescence ratio read?
**A.** The switch fluorescence ratio was 0.979 ± 0.058.

**Q.** For TGTGTGCGCG, which switch fluorescence ratio is on record?
**A.** The switch fluorescence ratio was 1.02 ± 0.043.

**Q.** For TGCACGGGGG, which switch fluorescence ratio is on record?
**A.** Its switch fluorescence ratio is 1.03 ± 0.013.

**Q.** For TCTCGAGGGG, which switch fluorescence ratio is on record?
**A.** The switch fluorescence ratio was 1 ± 0.019.

**Q.** With TGGGGACAGC as the sequence, how does the switch fluorescence ratio read?
**A.** Its switch fluorescence ratio is 0.949 ± 0.027.

**Q.** With TTTGGAGTCT as the sequence, how does the switch fluorescence ratio read?
**A.** The switch fluorescence ratio was 0.982 ± 0.031.

**Q.** For AAGTTTAGGG, which switch fluorescence ratio is on record?
**A.** The switch fluorescence ratio was 0.996 ± 0.027.

**Q.** Which switch fluorescence ratio does the source give for TTAGATAGGT here?
**A.** Its switch fluorescence ratio is 1.02 ± 0.062.

**Q.** How did the switch fluorescence ratio turn out when TCTTATTGGT was run?
**A.** Its switch fluorescence ratio is 1.01 ± 0.013.

**Q.** How did the switch fluorescence ratio turn out when ACGGGTATTA was run?
**A.** The switch fluorescence ratio was 0.9907 ± 0.0014.

**Q.** With GACGGGCGGC as the sequence, how does the switch fluorescence ratio read?
**A.** The switch fluorescence ratio was 0.984 ± 0.02.

**Q.** How did the switch fluorescence ratio turn out when GGGGTGATGC was run?
**A.** The switch fluorescence ratio was 1.07 ± 0.061.

**Q.** With AGGTTGCATG as the sequence, how does the switch fluorescence ratio read?
**A.** The switch fluorescence ratio was 1.02 ± 0.079.

**Q.** GAGGGAAACT was tested. Which switch fluorescence ratio did it give?
**A.** Its switch fluorescence ratio is 1.05 ± 0.11.

**Q.** TAGTCCCCCC was tested. Which switch fluorescence ratio did it give?
**A.** The switch fluorescence ratio was 1.21 ± 0.2.

**Q.** For TGGGCTGGCT, which switch fluorescence ratio is on record?
**A.** The switch fluorescence ratio was 1 ± 0.023.

**Q.** GGGTATGTGA was tested. Which switch fluorescence ratio did it give?
**A.** Its switch fluorescence ratio is 0.961 ± 0.037.

**Q.** For TTAAGAGGC, which switch fluorescence ratio is on record?
**A.** Its switch fluorescence ratio is 1.01 ± 0.2.

**Q.** CGCGTTGTGC was tested. Which switch fluorescence ratio did it give?
**A.** Its switch fluorescence ratio is 1.11 ± 0.021.

**Q.** With GTTTGATATA as the sequence, how does the switch fluorescence ratio read?
**A.** The switch fluorescence ratio was 1.01 ± 0.011.

**Q.** With GTTGGATGTA as the sequence, how does the switch fluorescence ratio read?
**A.** The switch fluorescence ratio was 1.011 ± 0.008.

**Q.** GGGATTTATA was tested. Which switch fluorescence ratio did it give?
**A.** The switch fluorescence ratio was 0.995 ± 0.019.

**Q.** With TGTATAATGT as the sequence, how does the switch fluorescence ratio read?
**A.** Its switch fluorescence ratio is 0.985 ± 0.029.

**Q.** For GATGGTTGGG, which switch fluorescence ratio is on record?
**A.** Its switch fluorescence ratio is 0.998 ± 0.029.

**Q.** TAGGGCGCGT was tested. Which switch fluorescence ratio did it give?
**A.** Its switch fluorescence ratio is 0.9947 ± 0.0094.

**Q.** GGGAGAACGA was tested. Which switch fluorescence ratio did it give?
**A.** The switch fluorescence ratio was 0.984 ± 0.015.

**Q.** Which switch fluorescence ratio does the source give for GCGGGCGTCG here?
**A.** Its switch fluorescence ratio is 0.994 ± 0.048.

**Q.** For GTTCCAAAGC, which switch fluorescence ratio is on record?
**A.** Its switch fluorescence ratio is 1.23 ± 0.019.

**Q.** How did the switch fluorescence ratio turn out when AGGGCAGGGA was run?
**A.** The switch fluorescence ratio was 0.993 ± 0.017.

**Q.** Which switch fluorescence ratio does the source give for CGGTCTATTG here?
**A.** Its switch fluorescence ratio is 1.002 ± 0.0098.

**Q.** Which switch fluorescence ratio does the source give for TTTATAGGCT here?
**A.** Its switch fluorescence ratio is 1.01 ± 0.047.

**Q.** CCGCGACAGG was tested. Which switch fluorescence ratio did it give?
**A.** The switch fluorescence ratio was 3.04 ± 0.22.

**Q.** How did the switch fluorescence ratio turn out when CGGATGTGTA was run?
**A.** Its switch fluorescence ratio is 1.002 ± 0.01.

**Q.** With GCTGGGTTTG as the sequence, how does the switch fluorescence ratio read?
**A.** The switch fluorescence ratio was 0.9866 ± 0.0088.

**Q.** With TTAAGATTCT as the sequence, how does the switch fluorescence ratio read?
**A.** Its switch fluorescence ratio is 0.993 ± 0.037.

**Q.** How did the switch fluorescence ratio turn out when ACTTTGGGCG was run?
**A.** The switch fluorescence ratio was 0.932 ± 0.059.

**Q.** For TTTTCCCTGG, which switch fluorescence ratio is on record?
**A.** Its switch fluorescence ratio is 1.46 ± 0.62.

**Q.** For CGGAAATAT, which switch fluorescence ratio is on record?
**A.** Its switch fluorescence ratio is 1.023 ± 0.0046.

**Q.** With AGTCATATAG as the sequence, how does the switch fluorescence ratio read?
**A.** Its switch fluorescence ratio is 1.062 ± 0.0056.

**Q.** Which switch fluorescence ratio does the source give for CACGGTTTGT here?
**A.** The switch fluorescence ratio was 0.985 ± 0.018.

**Q.** TCGGCATGGG was tested. Which switch fluorescence ratio did it give?
**A.** The switch fluorescence ratio was 1.11 ± 0.11.
